Here are results for four molecules from patent US20230395193A1 (priority 2020, published 2023).

B1: M-Q9BQ95 (protein, UniProt Q9BQ95 49-431, looked up)
Evolutionarily conserved …: SSEQSLVPSPPEPRQRPTKALVPFEDLFGQAPGGERDKASFLQTVQKFAEHSVRKRGHIDFIYLALRKMREYGVERDLAVYNQLLNIFPKEVFRPRNIIQRIFVHYPRQQECGIAVLEQMENHGVMPNKETEFLLIQIFGRKSYPMLKLVRLKLWFPRFMNVNPFPVPRDLPQDPVELAMFGLRHMEPDLSARVTIYQVPLPKDSTGAADPPQPHIVGIQSPDQQAALARHNPARPVFVEGPFSLWLRNKCVYYHILRADLLPPEEREVEETPEEWNLYYPMQLDLEYVRSGWDNYEFDINEVEEGPVFAMCMAGAHDQATMAKWIQGLQETNPTLAQIPVVFRLAGSTRELQTSSAGLEEPPLPEDHQEEDDNLQRQQQGQS
B2: M-Q9BQT8 (protein, UniProt Q9BQT8 1-299, looked up)
Mitochondrial …: MSAKPEVSLVREASRQIVAGGSAGLVEICLMHPLDVVKTRFQIQRCATDPNSYKSLVDSFRMIFQMEGLFGFYKGILPPILAETPKRAVKFFTFEQYKKLLGYVSLSPALTFAIAGLGSGLTEAIVVNPFEVVKVGLQANRNTFAEQPSTVGYARQIIKKEGWGLQGLNKGLTATLGRHGVFNMVYFGFYYNVKNMIPVNKDPILEFWRKFGIGLLSGTIASVINIPFDVAKSRIQGPQPVPGEIKYRTCFKTMATVYQEEGILALYKGLLPKIMRLGPGGAVMLLVYEYTYSWLQENW
modifications: interaction partner of viral M protein
B3: M-Q9BYC5 (protein, UniProt Q9BYC5 1-575, looked up)
Alpha-(1,6)-fucosyltransferase: MRPWTGSWRWIMLILFAWGTLLFYIGGHLVRDNDHPDHSSRELSKILAKLERLKQQNEDLRRMAESLRIPEGPIDQGPAIGRVRVLEEQLVKAKEQIENYKKQTRNGLGKDHEILRRRIENGAKELWFFLQSELKKLKNLEGNELQRHADEFLLDLGHHERSIMTDLYYLSQTDGAGDWREKEAKDLTELVQRRITYLQNPKDCSKAKKLVCNINKGCGYGCQLHHVVYCFMIAYGTQRTLILESQNWRYATGGWETVFRPVSETCTDRSGISTGHWSGEVKDKNVQVVELPIVDSLHPRPPYLPLAVPEDLADRLVRVHGDPAVWWVSQFVKYLIRPQPWLEKEIEEATKKLGFKHPVIGVHVRRTDKVGTEAAFHPIEEYMVHVEEHFQLLARRMQVDKKRVYLATDDPSLLKEAKTKYPNYEFISDNSISWSAGLHNRYTENSLRGVILDIHFLSQADFLVCTFSSQVCRVAYEIMQTLHPDASANFHSLDDIYYFGGQNAHNQIAIYAHQPRTADEIPMEPGDIIGVAGNHWDGYSKGVNRKLGRTGLYPSYKVREKIETVKYPTYPEAEK
modifications: interaction partner of SARS-CoV-2 M
B4: M-Q9BV40 (protein, UniProt Q9BV40 1-100, looked up)
Vesicle-associated membrane …: MEEASEGGGNDRVRNLQSEVEGVKNIMTQNVERILARGENLEHLRNKTEDLEATSEHFKTTSQKVARKFWWKNVKMIVLICVIVFIIILFIVLFATGAFS
modifications: host interactor of M

The experiment relates to SARS-CoV-1, MERS-CoV and SARS-CoV-2 proteins in HEK293T cells. Also noted: species or system human.
In the case of B1, the MIST_MERS is given as 0, the MIST_SARS1 came out at 0.9893, the MIST_SARS2 is given as 0 and the Saint_MERS is given as 0. The Saint_SARS1 came to 0.97 and the Saint_SARS2 was determined as 0.

As to B2, the MIST_MERS came to 0.4327, the MIST_SARS1 turned out to be 0.6946, the MIST_SARS2 is listed as 0.8808 and the Saint_MERS was 0. This molecule registered a Saint_SARS1 of 0.65 and a Saint_SARS2 of 0.65.

B3: the MIST_MERS is listed as 0.963, the MIST_SARS1 was determined as 0, the MIST_SARS2 is on record as 0 and the Saint_MERS came to 0.98. Besides, the Saint_SARS1 turned out to be 0 and the Saint_SARS2 is reported as 0.

As to B4, the MIST_MERS was found to be 0.9874, the MIST_SARS1 is on record as 0, the MIST_SARS2 came to 0 and the Saint_MERS worked out at 1. The same molecule had a Saint_SARS1 of 0 and a Saint_SARS2 of 0.
